Results taken from patent US20230201151A1, “FORMULATIONS AND METHODS FOR TREATING ACUTE RESPIRATORY DISTRESS SYNDROME, ASTHMA, OR ALLERGIC RHINITIS” (UNIVERSITY OF FLORIDA RESEARCH FOUNDATION, INC., priority 2020, published 2023).

Target: T1, ENaC (Homo sapiens, UniProt P37088+P51168+P51170)
T1 construct: primary cultures of human bronchial epithelial cells (HBEC) harvested from normal human lungs; endogenous in cells; host or cells: primary human bronchial epithelial cells (HBEC) from donor lungs, differentiated at an air-liquid interface
T1 sequence (P37088 1-669): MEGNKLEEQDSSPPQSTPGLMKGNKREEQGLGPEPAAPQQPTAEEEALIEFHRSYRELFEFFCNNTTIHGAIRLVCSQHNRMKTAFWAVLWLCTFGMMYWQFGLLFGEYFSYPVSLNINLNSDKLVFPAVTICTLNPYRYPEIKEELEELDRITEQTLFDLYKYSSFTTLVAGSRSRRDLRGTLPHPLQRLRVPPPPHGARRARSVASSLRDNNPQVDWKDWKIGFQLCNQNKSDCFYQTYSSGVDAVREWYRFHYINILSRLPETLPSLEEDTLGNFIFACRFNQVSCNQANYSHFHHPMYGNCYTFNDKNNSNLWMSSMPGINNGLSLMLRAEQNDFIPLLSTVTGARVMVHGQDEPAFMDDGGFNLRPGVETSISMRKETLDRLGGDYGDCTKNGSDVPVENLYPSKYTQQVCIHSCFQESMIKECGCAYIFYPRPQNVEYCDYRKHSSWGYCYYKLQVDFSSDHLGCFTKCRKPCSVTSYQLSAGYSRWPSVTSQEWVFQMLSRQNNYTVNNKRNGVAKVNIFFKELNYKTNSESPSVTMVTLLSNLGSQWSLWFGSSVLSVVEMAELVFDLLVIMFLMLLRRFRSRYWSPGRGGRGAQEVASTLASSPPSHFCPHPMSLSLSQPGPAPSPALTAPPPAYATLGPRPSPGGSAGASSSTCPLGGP
T1 sequence (P51168 1-640): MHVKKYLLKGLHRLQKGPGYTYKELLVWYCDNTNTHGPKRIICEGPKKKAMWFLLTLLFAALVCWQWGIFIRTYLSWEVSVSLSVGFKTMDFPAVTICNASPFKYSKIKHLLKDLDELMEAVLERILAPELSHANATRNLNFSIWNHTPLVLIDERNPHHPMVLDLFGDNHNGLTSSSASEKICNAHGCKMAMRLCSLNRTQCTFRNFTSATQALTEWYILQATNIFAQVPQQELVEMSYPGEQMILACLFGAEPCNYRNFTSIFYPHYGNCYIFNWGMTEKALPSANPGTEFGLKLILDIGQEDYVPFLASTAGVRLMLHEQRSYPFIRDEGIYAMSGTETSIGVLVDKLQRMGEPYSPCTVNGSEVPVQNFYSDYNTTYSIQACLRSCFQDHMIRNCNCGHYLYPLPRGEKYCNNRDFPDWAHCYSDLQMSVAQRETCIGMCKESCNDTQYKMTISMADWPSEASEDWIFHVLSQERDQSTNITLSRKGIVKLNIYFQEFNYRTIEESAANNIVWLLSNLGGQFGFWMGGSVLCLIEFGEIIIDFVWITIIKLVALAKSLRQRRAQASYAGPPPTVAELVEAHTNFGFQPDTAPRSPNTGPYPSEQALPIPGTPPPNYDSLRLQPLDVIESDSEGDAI
T1 sequence (P51170 1-649): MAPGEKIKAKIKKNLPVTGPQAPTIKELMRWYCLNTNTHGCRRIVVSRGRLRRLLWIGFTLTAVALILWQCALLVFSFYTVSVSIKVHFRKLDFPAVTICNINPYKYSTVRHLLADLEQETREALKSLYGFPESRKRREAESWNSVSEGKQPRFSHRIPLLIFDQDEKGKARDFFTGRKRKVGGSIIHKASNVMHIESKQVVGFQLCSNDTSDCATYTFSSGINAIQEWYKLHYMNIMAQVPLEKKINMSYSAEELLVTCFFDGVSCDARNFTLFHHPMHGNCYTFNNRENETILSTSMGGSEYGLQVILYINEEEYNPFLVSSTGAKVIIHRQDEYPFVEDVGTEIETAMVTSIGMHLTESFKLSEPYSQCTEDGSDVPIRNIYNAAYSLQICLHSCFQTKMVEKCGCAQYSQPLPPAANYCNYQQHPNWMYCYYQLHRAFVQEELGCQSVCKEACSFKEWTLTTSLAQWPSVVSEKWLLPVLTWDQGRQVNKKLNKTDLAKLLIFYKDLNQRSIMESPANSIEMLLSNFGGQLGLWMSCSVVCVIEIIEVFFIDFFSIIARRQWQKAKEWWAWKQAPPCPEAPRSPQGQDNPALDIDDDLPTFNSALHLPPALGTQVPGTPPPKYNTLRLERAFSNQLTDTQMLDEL
Assay: ENaC current (benzamil-sensitive current) in IL-13-treated differentiated HBEC, Examples 1-2
Assay type: cell-based
Method: IL-13: abcam (#ab9577); Stock solution: 10 μg/mL water; 20 ng=2 μL Stock/mL media Media change with IL-13 every other day
Experimental design: IL-13 treatment with 20 ng/mL media for 4 and 14 days. Ussing chamber experiment in Basic Ringer (5 mM glucose in basolateral side).
In some embodiments, experimental studies called for determination of: • Baseline values (30 min) • Presence or absence of 6 μM Benzamil (on apical side) (15 min) • Presence or absence of 20 μM CFTRinh 172 (on apical and basolateral sides) (15 min) • Presence or absence 10 μM CaCCinh AO1 (on apical and basolateral sides) (10 min) • Presence or absence of 20 μM Bumetanide (on basolateral side) (15 min)
For Day 0 analysis: • IL-13 treatment: 0 ng/mL media • Ussing chamber experiment in basic ringer or amino acid (AA) formulations. • In addition, S side added 5 mM Glucose
Treatment for 4 days or 14 days analysis: • IL-13 treatment: 20 ng/mL media • Ussing chamber experiment in basic ringer or AA formulations. • In addition, S side added 5 mM Glucose
In some embodiments, the day 4 and day 14 experimental studies called for determination of: • Baseline values (30 min) • Presence or absence of 6 μM Benzamil (on mucosal side) (15 min) • Presence or absence of 20 μM Bumetanide (on serosal side) (15 min) • Presence or absence of 20 μM CFTRinh 172 (on mucosal and serosal sides) (15 min) […]

## IL-13: Th2 cytokine (Abcam) added to HBEC culture medium
FIG. 2
  ENaC current versus IL-13 concentration: dose-dependent reduction
IL-13 exposure (FIG. 3)
  day of maximum reduction in ENaC current: 8 days
